Experimental data reported in patent publication US20240067706A1 (published 2024).

What was measured:
Experiment in all cases: BLI
[1] = biological target: SARS-CoV S protein (soluble, purified in vitro) (SARS-CoV, UniProt P59594 14-1195)
[2] = biological target: SARS-CoV-2 S protein (full-length S protein, soluble, purified in vitro) (SARS-CoV-2, UniProt P0DTC2 16-1213)
[3] = biological target: T1, MERS-CoV S protein (soluble, purified in vitro) (MERS-CoV, UniProt K9N5Q8 18-1297)
T1 chain: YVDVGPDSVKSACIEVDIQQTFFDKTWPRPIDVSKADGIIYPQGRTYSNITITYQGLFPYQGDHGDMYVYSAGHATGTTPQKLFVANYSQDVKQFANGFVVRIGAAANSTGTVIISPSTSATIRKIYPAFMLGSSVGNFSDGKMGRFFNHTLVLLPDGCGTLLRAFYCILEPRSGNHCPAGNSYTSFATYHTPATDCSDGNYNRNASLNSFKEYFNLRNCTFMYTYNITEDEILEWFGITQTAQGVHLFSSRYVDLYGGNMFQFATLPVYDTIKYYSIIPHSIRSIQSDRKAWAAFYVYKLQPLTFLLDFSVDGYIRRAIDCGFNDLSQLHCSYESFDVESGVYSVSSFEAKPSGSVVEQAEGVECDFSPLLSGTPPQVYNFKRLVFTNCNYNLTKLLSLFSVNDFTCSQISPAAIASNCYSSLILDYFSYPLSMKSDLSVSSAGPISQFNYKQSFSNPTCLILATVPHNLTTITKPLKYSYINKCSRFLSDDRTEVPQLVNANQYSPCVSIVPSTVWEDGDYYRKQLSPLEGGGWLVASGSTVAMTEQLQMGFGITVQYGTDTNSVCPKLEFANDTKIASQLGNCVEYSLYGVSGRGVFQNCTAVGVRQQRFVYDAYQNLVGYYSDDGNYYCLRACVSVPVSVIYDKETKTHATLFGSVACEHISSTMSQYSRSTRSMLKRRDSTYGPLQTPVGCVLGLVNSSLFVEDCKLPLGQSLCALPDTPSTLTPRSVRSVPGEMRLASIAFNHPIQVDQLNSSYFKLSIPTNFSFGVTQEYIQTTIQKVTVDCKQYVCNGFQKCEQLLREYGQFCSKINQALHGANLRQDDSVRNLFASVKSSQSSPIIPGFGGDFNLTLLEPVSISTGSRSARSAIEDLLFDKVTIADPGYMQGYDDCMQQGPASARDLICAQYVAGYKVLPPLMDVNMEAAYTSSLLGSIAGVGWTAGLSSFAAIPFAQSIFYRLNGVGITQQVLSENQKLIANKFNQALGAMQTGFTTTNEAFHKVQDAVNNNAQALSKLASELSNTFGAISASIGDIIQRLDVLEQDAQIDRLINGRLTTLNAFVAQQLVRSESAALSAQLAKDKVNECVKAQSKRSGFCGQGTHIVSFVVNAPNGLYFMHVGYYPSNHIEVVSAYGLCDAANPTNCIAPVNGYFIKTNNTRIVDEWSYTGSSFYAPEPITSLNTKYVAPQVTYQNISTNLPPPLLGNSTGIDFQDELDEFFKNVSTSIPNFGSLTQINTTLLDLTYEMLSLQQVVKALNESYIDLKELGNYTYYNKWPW

B1: fully human monoclonal antibody 76E1 (antibody, V domains shown)
VH: EVQLVESGGGVVQPGGSLRLSCEASGFSFKDYGMHWIRQTPGKGLEWISRISGDTRGTSYVDSVKGRFIVSRDNSRNSLFLQMNSLRSEDTALYYCAALVIVAAGDDFDLWGQGTVVTVSS
VL: QSALTQPLSVSGSPGQSVTISCTGSSSDIGSYNFVSWYRQYPGKAPKVMIYEVNKRPSGVPVRFSGSKSGNTASLTVSGLQHEDEADYYCCSYGGRNNLIFGGGTKLTVL
[1]
  Kd: 0.107 nM
[2]
  Kd: 0.431 nM
[3]
  Kd: 1.03 nM
